Source: article PMC7614608 (Nature, 2023)

Biological target: T1, 6x-His-3C-EIF4A3 (human, UniProt P38919 1-411)
T1 construct: EIF4A3, human, full length; source: E. coli BL21 DE3 RIL, purified (HisTrap, HiTrapQ, Superdex 75); not shown: His6, N-terminal, kept
Assay: pull-down; MBP-tagged bait (ALYREF constructs or CASC3 SELOR) mixed overnight at 4 °C with EIF4A3, Y14(66-154)–MAGOH, ssRNA and AMP-PNP in 25 mM HEPES pH 7.9, 50 mM NaCl, 5 mM MgCl2; held on amylose resin, maltose elution, SDS-PAGE with Coomassie
Conditions: both partners purified

T1 sequence (P38919 whole entry): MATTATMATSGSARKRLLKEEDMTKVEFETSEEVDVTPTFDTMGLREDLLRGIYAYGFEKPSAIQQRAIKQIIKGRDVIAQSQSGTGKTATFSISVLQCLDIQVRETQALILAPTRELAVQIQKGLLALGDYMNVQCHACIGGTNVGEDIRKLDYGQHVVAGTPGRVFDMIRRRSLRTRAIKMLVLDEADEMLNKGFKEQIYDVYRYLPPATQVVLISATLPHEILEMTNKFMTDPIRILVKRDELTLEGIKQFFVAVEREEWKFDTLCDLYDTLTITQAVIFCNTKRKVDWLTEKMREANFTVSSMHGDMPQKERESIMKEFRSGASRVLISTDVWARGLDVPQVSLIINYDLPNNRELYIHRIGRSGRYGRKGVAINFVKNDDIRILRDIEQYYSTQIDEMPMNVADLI

B1: 10x-His-MBP-3C-ALYREFN (ALYREF residues 1-182) (domain or fragment)
chain: not shown
notes: also called MBP-ALYREFN; source: E. coli BL21 DE3 RIL, purified (HisTrap, cation exchange, Superdex 75); not shown: His10, N-terminal, kept; MBP, N-terminal, kept
binding result: binds
